Test results taken from patent US6287561.

Molecular target: gp120 of HIV-1 RF strain (HIV-1 RF strain) (UniProt P04579)

For LMW-UK (from UniProt P00749), which p24 antigen level in H9 cell supernatants, percent of control is on record?
Its p24 antigen level in H9 cell supernatants, percent of control is 4 % of control.
